B1: Pistol ribozyme (parent)
chain: GGGUCGUUGUUCCAUAAUCGCGUGGAUAUGGCACGCAAGUUUCUACCGGGCACCGUAAAUGUCCGACUGGAGCCGUUCGGGCGGCUAUAAACAGACCUCAGGCCCGAAGCGUGGCGGCACCUGCCGCCGGUGGUAAAAAAGAUCGGAAGAGCACACGUCU

Variants of: B1
Assay: aptazyme ON/OFF ratio, guanine; higher = stronger switching; co-transcriptional cleavage with and without guanine
In the case of U7G U8G G9U U10C U11A C12U, the “aptazyme ON/OFF ratio” value is reported as 1.28. For U7G U8G G9U U10C U11A C12G, the “aptazyme ON/OFF ratio” value was 1.25. In the case of U7G U8G G9U U10C U11A C12A, the “aptazyme ON/OFF ratio” value is reported as 1.28. For U7G U8G G9U U11A C12A C13G, the “aptazyme ON/OFF ratio” value was 1.13. In the case of U7G U8G G9U U11A C12A C13A, the “aptazyme ON/OFF ratio” value is reported as 1.07. For U7G U8G G9U U11A C12A C13U, the “aptazyme ON/OFF ratio” value was 1.18. In the case of U7G U8G G9U U10G U11C C12A C13A, the “aptazyme ON/OFF ratio” value is reported as 1.1. In the case of U7G U8G G9U U10G U11C C12A C13G, the “aptazyme ON/OFF ratio” value is reported as 1.11. With U7G U8G G9U U10G U11C C12A C13U the “aptazyme ON/OFF ratio” value was 1.1. For U7G U8G G9U U10C U11C C12A C13U, the “aptazyme ON/OFF ratio” value was 1.53. In the case of U7G U8G G9U U10C U11C C12A C13A, the “aptazyme ON/OFF ratio” value is reported as 1.33. With U7G U8G G9U U10C U11C C12A C13G the “aptazyme ON/OFF ratio” value was 1.3. In the case of U7G U8G U10G C12U C13G, the “aptazyme ON/OFF ratio” value is reported as 1.04. In the case of U7G U8G U10G C12U C13U, the “aptazyme ON/OFF ratio” value is reported as 1.32. In the case of U7G U8G U10G C12U C13A, the “aptazyme ON/OFF ratio” value is reported as 1. With U7G U8G U10A U11C C12A C13G the “aptazyme ON/OFF ratio” value was 1.23. In the case of U7G U8G U10A U11C C12A C13A, the “aptazyme ON/OFF ratio” value is reported as 1.34. For U7G U8G U10A U11C C12A C13U, the “aptazyme ON/OFF ratio” value was 1.47. For U7G U8G U10A U11G, the “aptazyme ON/OFF ratio” value was 1.65. With U7G U8G U10A U11C the “aptazyme ON/OFF ratio” value was 1.09. In the case of U7G U8G U10A U11A, the “aptazyme ON/OFF ratio” value is reported as 2.25. In the case of U7G U8G U10A U11C C12G C13A, the “aptazyme ON/OFF ratio” value is reported as 1.16. For U7G U8G U10A U11C C12G C13U, the “aptazyme ON/OFF ratio” value was 1.29. For U7G U8G U10A U11C C12G C13G, the “aptazyme ON/OFF ratio” value was 1.11. For U7G U8G U10G U11C C12G C13G, the “aptazyme ON/OFF ratio” value was 1.25. For U7G U8G U10G U11C C12G C13A, the “aptazyme ON/OFF ratio” value was 1.29. In the case of U7G U8G U10G U11C C12G C13U, the “aptazyme ON/OFF ratio” value is reported as 1.4. For U7G U8G U10A U11A C13A, the “aptazyme ON/OFF ratio” value was 1.33. In the case of U7G U8G U10A U11A C13G, the “aptazyme ON/OFF ratio” value is reported as 1.21. With U7G U8G U10A U11A C13U the “aptazyme ON/OFF ratio” value was 1.35. For U7G U8G U10C U11C C12U C13U, the “aptazyme ON/OFF ratio” value was 1.4. For U7G U8G U10C U11C C12U C13A, the “aptazyme ON/OFF ratio” value was 1.29. For U7G U8G U10C U11C C12U C13G, the “aptazyme ON/OFF ratio” value was 1.34. In the case of U7G U8G G9U U11C C12A C13A, the “aptazyme ON/OFF ratio” value is reported as 1.23. With U7G U8G G9U U11C C12A C13G the “aptazyme ON/OFF ratio” value was 1.15. In the case of U7G U8G G9U U11C C12A C13U, the “aptazyme ON/OFF ratio” value is reported as 1.23. For U7G U8G G9U U11C C12G, the “aptazyme ON/OFF ratio” value was 1.43. For U7G U8G G9U U11C C12U, the “aptazyme ON/OFF ratio” value was 1.65. With U7G U8G G9U U11C C12A the “aptazyme ON/OFF ratio” value was 1.8. In the case of U7G U8G U10C C13G, the “aptazyme ON/OFF ratio” value is reported as 1.17. In the case of U7G U8G U10C C13A, the “aptazyme ON/OFF ratio” value is reported as 1.33. With U7G U8G U10C C13U the “aptazyme ON/OFF ratio” value was 1.81. For U7G U8G U10C C12G C13A, the “aptazyme ON/OFF ratio” value was 1.4. With U7G U8G U10C C12G C13G the “aptazyme ON/OFF ratio” value was 1.54. For U7G U8G U10C C12G C13U, the “aptazyme ON/OFF ratio” value was 1.33. For U7G U8G G9U U10G U11C, the “aptazyme ON/OFF ratio” value was 1.1. With U7G U8G G9U U10G U11A the “aptazyme ON/OFF ratio” value was 1.4. In the case of U7G U8G G9U U10G U11G, the “aptazyme ON/OFF ratio” value is reported as 1.81. In the case of U7G U8G U10C U11A C12U C13G, the “aptazyme ON/OFF ratio” value is reported as 1.37. In the case of U7G U8G U10C U11A C12U C13U, the “aptazyme ON/OFF ratio” value is reported as 1.31. In the case of U7G U8G U10C U11A C12U C13A, the “aptazyme ON/OFF ratio” value is reported as 1.37. For U7G U8G G9U U10G U11A C12A, the “aptazyme ON/OFF ratio” value was 1.13. In the case of U7G U8G G9U U10G U11A C12G, the “aptazyme ON/OFF ratio” value is reported as 1.16. With U7G U8G G9U U10G U11A C12U the “aptazyme ON/OFF ratio” value was 1.27. With U7G U8G U10C C12A C13U the “aptazyme ON/OFF ratio” value was 1.28. For U7G U8G U10C C12A C13G, the “aptazyme ON/OFF ratio” value was 1.27. In the case of U7G U8G U10C C12A C13A, the “aptazyme ON/OFF ratio” value is reported as 1.45. With U7G U8G G9U U10G U11C C12U C13A the “aptazyme ON/OFF ratio” value was 1.06. In the case of U7G U8G G9U U10G U11C C12U C13G, the “aptazyme ON/OFF ratio” value is reported as 1.19. For U7G U8G G9U U10G U11C C12U C13U, the “aptazyme ON/OFF ratio” value was 1.03. For U7G U8G G9U U11C C12U C13G, the “aptazyme ON/OFF ratio” value was 1.38. For U7G U8G G9U U11C C12U C13U, the “aptazyme ON/OFF ratio” value was 1.33. With U7G U8G G9U U11C C12U C13A the “aptazyme ON/OFF ratio” value was 1.35. With U7G U8G U10C U11A C12A C13U the “aptazyme ON/OFF ratio” value was 1.14. In the case of U7G U8G U10C U11A C12A C13A, the “aptazyme ON/OFF ratio” value is reported as 1.08. In the case of U7G U8G U10C U11A C12A C13G, the “aptazyme ON/OFF ratio” value is reported as 1.12. With U7G U8G G9U U10C U11A C12A C13G the “aptazyme ON/OFF ratio” value was 1.24. With U7G U8G G9U U10C U11A C12A C13A the “aptazyme ON/OFF ratio” value was 1.3. For U7G U8G G9U U10C U11A C12A C13U, the “aptazyme ON/OFF ratio” value was 1.33. In the case of U7G U8G G9U U10G U11C C12G, the “aptazyme ON/OFF ratio” value is reported as 1.11. In the case of U7G U8G G9U U10G U11C C12U, the “aptazyme ON/OFF ratio” value is reported as 1.04. For U7G U8G G9U U10G U11C C12A, the “aptazyme ON/OFF ratio” value was 1.13. With U7G U8G U10C U11C C13G the “aptazyme ON/OFF ratio” value was 1.07. In the case of U7G U8G U10C U11C C13U, the “aptazyme ON/OFF ratio” value is reported as 1.12. With U7G U8G U10C U11C C13A the “aptazyme ON/OFF ratio” value was 1.07. For U7G U8G G9U U11G C12U C13G, the “aptazyme ON/OFF ratio” value was 1.2. For U7G U8G G9U U11G C12U C13U, the “aptazyme ON/OFF ratio” value was 1.27. With U7G U8G G9U U11G C12U C13A the “aptazyme ON/OFF ratio” value was 1.07. For U7G U8G U10G U11A C12G, the “aptazyme ON/OFF ratio” value was 1.43. With U7G U8G U10G U11A C12U the “aptazyme ON/OFF ratio” value was 1.36. In the case of U7G U8G U10G U11A C12A, the “aptazyme ON/OFF ratio” value is reported as 1.18. In the case of U7G U8G G9U U10C U11G C12U C13G, the “aptazyme ON/OFF ratio” value is reported as 1.24. In the case of U7G U8G G9U U10C U11G C12U C13A, the “aptazyme ON/OFF ratio” value is reported as 1.23.

Source: the RNAGym collection of RNA variant scans (doi:10.1021/acssynbio.7b00057)
